Test results taken from the Human Domainome abundance scans (Beltran et al. 2025).

B1: POU domain, class 4, transcription factor 2, residues 256 to 327; numbered along this chain, Q12837 (parent)
chain: RDLEAFAERFKQRRIKLGVTQADVGSALANLKIPGVGSLSQSTICRFESLTLSHNNMIALKPILQAWLEEAE

Variants of: B1
Assay: abundance fitness (aPCA) (normalised: wild type 0, dead -1); higher = more abundant; growth selection in yeast, the domain comes from the species named
Conditions: Homo sapiens

Abundance fitness: each site, then its substitutions
G37: S 0.028, T -0.162, V -0.269, W -0.68, Y -0.418
S38: A -0.013, C -0.092, D -0.277, E -0.127, G -0.091, H 0.104, I -0.146, K -0.127, L -0.045, N 0.133, Q -0.051, R -0.022, T -0.083, V -0.159, W -0.209, Y 0.026
L39: C -0.168, D -0.413, F -0.181, G -0.499, K -0.141, M -0.01, N -0.615, P -0.258, Q -0.732, R -0.718, S -0.304, T -0.204, W -0.387, Y -0.53
S40: A -0.203, C -0.131, D 0.016, E -0.15, G 0.014, H -0.228, L -0.671, M -0.723, N -0.108, P -0.193, Q -0.293, R -0.312, T 0.092, V -0.385, W -0.779, Y -0.685
Q41: C -0.37, D -0.058, E 0.111, F -0.335, G 0.041, H 0.089, I -0.275, K 0.054, L -0.289, P -0.046, R -0.061, S -0.044, T 0.077, V -0.187, W -0.06
S42: C -0.325, E 0.107, F -0.494, G -0.11, H 0.085, I -0.272, K 0.068, L -0.152, N -0.28, P -0.381, Q -0.084, R -0.085, T -0.054, V -0.113, W -0.359
T43: A -0.271, C -0.232, D -0.114, E -0.574, F -0.289, G -0.792, H -0.274, I 0.207, K -0.624, L -0.053, M -0.068, Q -0.452, R -0.632, S -0.353, V -0.01, W -0.282
I44: A -1, C -0.643, D -0.771, E -0.652, F -0.913, K -0.065, L -0.392, M -0.87, P -0.923, R -0.973, S -0.963, V -0.168, W -1.03, Y -0.019
C45: A 0.036, D -0.135, E 0.156, F -0.041, G 0.02, H 0.039, I -0.261, K -0.098, L -0.157, M -0.251, N 0.091, Q 0.119, R -0.008, S 0.065, T -0.161, V -0.004, W -0.431, Y 0.26
R46: A -0.027, C -0.059, D 0.094, H -0.118, K 0.033, L -0.22, M -0.12, P -1.01, Q 0.122, S 0.076, T -0.531, V -0.899, W -0.567
F47: A -0.278, C -0.214, D -0.82, G -0.834, I -0.67, M -0.781, N -0.871, P -0.897, Q -0.59, R -0.864, S -0.996, T -0.922, V -1.06, W -0.836, Y -0.53
E48: A -0.802, G -0.594, H -0.818, L -0.93, P -0.889, Q -0.833, R -0.463, S -0.644, V -1.17, W -1.09
